In the supplement of paper PMC7877785:
± gives the uncertainty stated by the source.

Test: self-splicing fitness, log relative to wild type (ln ratio); higher = more splicing; Tetrahymena group I intron in knt gene, E. coli kanamycin selection, DiMSum; sequences stand for … in CUCUCU…GGAGGGAAAAGUUAUCAGGCAUGCACCUGGUAGCUAGUCUUUAAACCAAUAGAUUGCAUCGGUUUAAAAGGCAAGACCGUCAAAUUGCGGGAAAGGGGUCAACAGCCGUUCAGUACCAAGUCUCAGGGGAAACUUUGAGAUGGCCUUGCAAAGGGUAUGGUAAUAAGCUGACGGACAUGGUCCUAACCACGCAGCCAAGUCCUAAGUCAACAGAUCUUCUGUUGAUAUGGAUGCAGUUCACAGACUAAAUGUCGGUCGGGGAAGAUGUAUUCUUCUCAUAAGAUAUAGUCGGACCUCUCCUUAAUGGGAGCUAGCGGAUGAAGUGAUGCAACACUGGAGCCGCUGGGAACUAAUUUGUAUGCGAAAGUAUAUUGAUUAGUUUUGGAGUACUCGUGGUCG
In short: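 A randomised library covering all eight P1ex-region intron nucleotides was built with the intron in the knt kanamycin-resistance gene on pET-22b(+) and held in E. coli BL21(DE3). Cells were grown overnight at 37°C or 30°C on LB agar, with or without 25 μg/mL kanamycin, plus 100 μg/mL carbenicillin, 50 μM IPTG and 0.2% rhamnose, and pooled colonies were amplicon-sequenced on an Illumina HiSeq 2500. DiMSum fitness is the error-weighted combination of wild-type-normalised replicate fold changes, kanamycin versus none.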

Sequence	self-splicing fitness (ln) (30 °C)	self-splicing fitness (ln) (37 °C)
GCCGAGCAAUAUUACGCGUC	-0.898 ± 0.14	-0.0598 ± 0.2
CAAUAGCAAUAUUACGCCGU	-3.47 ± 0.15	-1.4 ± 0.14
GUCAAGCAAUAUUACGUUGC	-5.11 ± 0.34	-2.28 ± 0.21
GAGUAGCAAUAUUACGAAGC	-2.94 ± 0.32	-1.8 ± 0.44
ACUAAGCAAUAUUACGUUAG	-2.59 ± 0.13	-2.1 ± 0.17
AUUAAGCAAUAUUACGCUCC	-1.04 ± 0.23	-0.859 ± 0.29
CGCUAGCAAUAUUACGGGUG	-3.31 ± 0.12	-2.83 ± 0.13
ACCAAGCAAUAUUACGUGUU	-3.99 ± 0.093	-1.54 ± 0.075
GACAAGCAAUAUUACGCACU	0.582 ± 0.11	-0.112 ± 0.12
CCCAAGCAAUAUUACGCUUU	-3.91 ± 0.2	-1.85 ± 0.17
UCGCAGCAAUAUUACGGCGC	-1.87 ± 0.12	-0.971 ± 0.17
UCACAGCAAUAUUACGAAUA	-2.68 ± 0.14	-1.44 ± 0.11
UUGGAGCAAUAUUACGGACU	-3.18 ± 0.34	-2.65 ± 0.35
GGUCAGCAAUAUUACGGAAU	-0.593 ± 0.054	-0.0986 ± 0.069
AUUGAGCAAUAUUACGCUGC	-3.62 ± 0.47	-1.77 ± 0.41
ACUAAGCAAUAUUACGAUGA	-0.267 ± 0.068	-0.253 ± 0.076
UUGUAGCAAUAUUACGGGGU	-3.7 ± 0.46	-2.68 ± 0.27
CUCAAGCAAUAUUACGAGUA	-3.49 ± 0.28	-2.41 ± 0.23
AACCAGCAAUAUUACGCCAC	-3.16 ± 0.19	-2.97 ± 0.4
AAUUAGCAAUAUUACGGUAG	-4.2 ± 0.39	-1.66 ± 0.24
CUCUAGCAAUAUUACGUUCG	-3.54 ± 0.19	-2.33 ± 0.18
GAUGAGCAAUAUUACGGCCG	0.414 ± 0.41	–
CCGGAGCAAUAUUACGUUAA	-2.42 ± 0.26	-1.93 ± 0.41
AAUUAGCAAUAUUACGGUGC	-2.19 ± 0.26	-3 ± 0.43
UGCGAGCAAUAUUACGCGAU	-2.39 ± 0.42	–

Sequence	self-splicing fitness (ln) (30 °C)	self-splicing fitness (ln) (37 °C)
AUUUAGCAAUAUUACGAAGC	-2.88 ± 0.23	-3.6 ± 0.46
UUCUAGCAAUAUUACGAAGU	–	-0.603 ± 0.25
ACGGAGCAAUAUUACGAGCA	-3.2 ± 0.34	–
CUAAAGCAAUAUUACGGGCU	-4.47 ± 0.18	-2.59 ± 0.16
UCGAAGCAAUAUUACGCCAU	-3.42 ± 0.32	-2.52 ± 0.48
CGACAGCAAUAUUACGGUAG	-1.47 ± 0.069	-0.946 ± 0.069
GGUAAGCAAUAUUACGAUGC	-0.616 ± 0.13	-0.401 ± 0.16
AUUCAGCAAUAUUACGAACC	-0.503 ± 0.16	-0.325 ± 0.2
AGUUAGCAAUAUUACGAACC	-1 ± 0.15	-0.401 ± 0.17
AGAGAGCAAUAUUACGAGUG	–	-2.15 ± 0.34
GUGUAGCAAUAUUACGCCGG	-2.93 ± 0.27	-2.16 ± 0.38
CUGGAGCAAUAUUACGCUAU	-3.45 ± 0.38	-2.67 ± 0.38
CGUAAGCAAUAUUACGAAAU	-3.16 ± 0.27	-1.86 ± 0.25
ACUGAGCAAUAUUACGGGUU	-2.09 ± 0.1	-3.88 ± 0.28
UUUGAGCAAUAUUACGUGAG	-1.35 ± 0.11	0.29 ± 0.14
GGUGAGCAAUAUUACGUGCU	-1.66 ± 0.18	-1.74 ± 0.37
ACCUAGCAAUAUUACGUUGC	-2.21 ± 0.1	-1.56 ± 0.14
AUUAAGCAAUAUUACGACUG	-2.34 ± 0.2	-1.64 ± 0.24
AUUGAGCAAUAUUACGCAAG	-3.27 ± 0.19	-1.31 ± 0.18
AUCAAGCAAUAUUACGACUC	-0.467 ± 0.1	-0.0986 ± 0.14
ACCAAGCAAUAUUACGCACG	-1.92 ± 0.1	-0.625 ± 0.13
AUUCAGCAAUAUUACGGUCC	-1.46 ± 0.11	-0.22 ± 0.12
GUUCAGCAAUAUUACGUGUC	-0.83 ± 0.097	0.00179 ± 0.094
UUUAAGCAAUAUUACGCGAU	-3.34 ± 0.43	-2.32 ± 0.29
